Measurements reported in patent US20200179533A1.

Tests used:
[1] = biological target: PiT-2-HA (human) (UniProt Q08357); test: cell-based or functional assay
[2] = biological target: PiT-2 receptor (human receptor gene PiT-2, SLC20A2) (human) (UniProt Q08357); test: cell-based or functional assay

For “Amphotropic Envelope gene product included in the Reximmune-C1 and 2 retroviral vector”, the EGFP+ cells (%) (transduction efficiency, PiT-2-HA-HCT-15) [1] was 14.9%, the EGFP+ cells (%) (transduction efficiency, PiT-2-CHO-K1) [2] was 34% and the EGFP+ cells (%) (transduction efficiency, PiT-2-MIA-PaCa-2) [2] was 78.6%. For the same substance, the EGFP+ cells (%) (transduction efficiency, PiT-2-RKO) [2] was 43.1%.
